Measured values published in the RNAGym collection of RNA variant scans (doi:10.7554/elife.80360).

B1: Twister Ribozyme (parent)
chain: AACACUGCCAAUGCCGGUCCCAAGCCCGGAUAAAAGUGGAGGGGGCGG

Variants of: B1
Experiment: self-cleavage, relative activity (ratio to wild type); higher = more cleavage; co-transcriptional

| Variant | self-cleavage |
| --- | --- |
| G13U G24A | 0.0906 |
| G13U G24U | 0.0911 |
| C14A C26U | 0.247 |
| C14A C26A | 0.38 |
| C15G A33U | 0.121 |
| C15G G43U | 0.104 |
| C15G G43C | 0.0538 |
| C14G G17U | 0.101 |
| C15G G36U | 0.0831 |
| C15G G36C | 0.0921 |
| C14U G47C | 0.616 |
| C14U G47U | 1 |
| G13U U31A | 0.43 |
| G13U U31G | 0.667 |
| C15G C26G | 0.0537 |
| C14A | 0.923 |
| C14G | 0.171 |
| C14U | 1.1 |
| C15A G43C | 0.17 |
| C15A G43U | 0.258 |
| C15A A40G | 0.107 |
| C15A A40C | 0.136 |
| C14A A34U | 0.866 |
| C15A C27U | 0.0943 |

| Variant | self-cleavage |
| --- | --- |
| C15A C27A | 0.18 |
| G13U G47A | 0.228 |
| G13U G47C | 0.179 |
| C15A A23C | 0.0415 |
| G13C G44U | 0.254 |
| G13C G44C | 0.185 |
| C15G | 0.101 |
| C15A | 0.801 |
| C15U | 0.975 |
| C15G G38U | 0.0777 |
| C15G G38C | 0.0527 |
| G13U G17C | 0.0903 |
| C14U G24C | 0.102 |
| C14U G24A | 0.173 |
| C14U G24U | 0.135 |
| G13U G38A | 0.226 |
| C14U C26A | 0.497 |
| C14U C26G | 0.235 |
| C14A G24A | 0.18 |
| C14A G24U | 0.146 |
| C14A G24C | 0.0765 |
| C14G A33C | 0.176 |
| C14G A33G | 0.0896 |
| C15G C20U | 0.0686 |

| Variant | self-cleavage |
| --- | --- |
| C15G C20G | 0.0898 |
| C14G C46A | 0.078 |
| G13U C26A | 0.129 |
| G13U | 0.801 |
| C15G G24A | 0.0815 |
| C15G G24C | 0.0723 |
| C15G G24U | 0.0758 |
| C15A U37G | 0.0756 |
| C14G G39C | 0.0468 |
| C14G G39U | 0.0771 |
| C14G G39A | 0.0534 |
| C15G U18C | 0.048 |
| C15G U18A | 0.04 |
| C14U C27A | 0.586 |
| C14U C27U | 0.896 |
| C15U A23G | 0.297 |
| C15U A23C | 0.134 |
| C14A G17A | 0.457 |
| C14A G17C | 0.12 |
| C14G A30G | 0.122 |
| C14G A30C | 0.16 |
| G13U G16U | 0.253 |
| G13U G16C | 0.094 |
| C14G G16A | 0.0993 |

| Variant | self-cleavage |
| --- | --- |
| C14G G16C | 0.143 |
| G13U G36U | 0.107 |
| C14G G47U | 0.0804 |
| C14G G47C | 0.0728 |
| G13U G29C | 0.555 |
| G13U G29U | 0.588 |
| C14U G36A | 0.789 |
| G13U A32U | 0.489 |
| G13U A32G | 0.354 |
| C15G C19U | 0.0895 |
| C14U G42A | 0.456 |
| G13U G43U | 0.155 |
| G13U G43C | 0.137 |
| C14U G28U | 1.08 |
| G13C G43A | 0.0854 |
| G13C G43C | 0.105 |
| G13C G41U | 0.0855 |
| G13C G41C | 0.104 |
| G13C U18A | 0.067 |
| G13C U18G | 0.0609 |
| C14U C15A | 0.636 |
| C14U C15U | 1.51 |
| C15G G29C | 0.0981 |
| C15G G29A | 0.104 |

| Variant | self-cleavage |
| --- | --- |
| C15A C19U | 0.566 |
| C15A C19A | 0.0896 |
| C15A C19G | 0.151 |
| C14U C46A | 1.05 |
| C14G C19A | 0.0588 |
| C14G C19G | 0.078 |
| C14U C21G | 0.108 |
| C14G U31A | 0.153 |
| C14G U31G | 0.158 |
| C14G U31C | 0.142 |
| C15A G39U | 0.172 |
| C15A G39C | 0.124 |
| C15A G36U | 0.142 |
| C15A G36C | 0.0919 |
| C14G A40U | 0.0589 |
| C14G A40C | 0.067 |
| C14G A40G | 0.0712 |
| C15A C26U | 0.0725 |
| C14G A35C | 0.244 |
| C14G A35G | 0.138 |
| C14G C27U | 0.0942 |
| C14G C27G | 0.0942 |
| C14G C27A | 0.0743 |
| C14U G45C | 0.713 |

| Variant | self-cleavage |
| --- | --- |
| C14U G45U | 0.964 |
| C14U G45A | 0.999 |
| G13C U37C | 0.116 |
| G13C U37G | 0.125 |
| C15A G45U | 0.528 |
| C15A C20U | 0.397 |
| C15A C20A | 0.0707 |
| C14G U37C | 0.0984 |
| C14G U37A | 0.0885 |
| C14A G48C | 1.04 |
| C14U A32U | 1.04 |
| C15A A30C | 0.648 |
| C15A A30U | 0.89 |
| C14G G38A | 0.127 |
| C14U U18G | 0.0637 |
| C15G G39A | 0.0759 |
| C15G A34G | 0.103 |
| C15G A34U | 0.109 |
| G13C G45C | 0.138 |
| G13C G45A | 0.209 |
| C14U C19A | 0.429 |
| C14U C19U | 1.14 |
| C14A C21A | 0.128 |
| C14A C21G | 0.1 |

| Variant | self-cleavage |
| --- | --- |
| C14U A35G | 0.917 |
| C14U A35C | 1.05 |
| C14U A35U | 1.03 |
| G13U A34G | 0.211 |
| C15G A32C | 0.112 |
| C14G A23G | 0.103 |
| C14A A35G | 0.718 |
| C15U A34G | 0.806 |
| C15G G42C | 0.0975 |
| G13U U37C | 0.133 |
| C15G G47A | 0.0633 |
| C15G G47U | 0.0543 |
| C15G G47C | 0.0669 |
| C14U C20U | 0.942 |
| C14U C20A | 0.154 |
| C14G C21G | 0.0402 |
| C14G C21A | 0.0482 |
| C15A G47A | 0.39 |
| C15G A35C | 0.123 |
| C15G A35G | 0.0859 |
| C14G G44A | 0.174 |
| C14G G44U | 0.125 |
| C14A A32C | 0.914 |
